Measured values as given in IntAct's records for PubMed 19276109.

B1: Protein ABSCISIC ACID-… 5 (Arabidopsis thaliana (Mouse-ear cress)), Q9SJN0 (parent)
chain: MVTRETKLTSEREVESSMAQARHNGGGGGENHPFTSLGRQSSIYSLTLDEFQHALCENGKNFGSMNMDEFLVSIWNAEENNNNQQQAAAAAGSHSVPANHNGFNNNNNNGGEGGVGVFSGGSRGNEDANNKRGIANESSLPRQGSLTLPAPLCRKTVDEVWSEIHRGGGSGNGGDSNGRSSSSNGQNNAQNGGETAARQPTFGEMTLEDFLVKAGVVREHPTNPKPNPNPNQNQNPSSVIPAAAQQQLYGVFQGTGDPSFPGQAMGVGDPSGYAKRTGGGGYQQAPPVQAGVCYGGGVGFGAGGQQMGMVGPLSPVSSDGLGHGQVDNIGGQYGVDMGGLRGRKRVVDGPVEKVVERRQRRMIKNRESAARSRARKQAYTVELEAELNQLKEENAQLKHALAELERKRKQQYFESLKSRAQPKLPKSNGRLRTLMRNPSCPL

Variants of: B1
Settings: with sumo1_arath SUMO1, P55852
Chain of sumo1_arath SUMO1, P55852 (P55852 whole entry): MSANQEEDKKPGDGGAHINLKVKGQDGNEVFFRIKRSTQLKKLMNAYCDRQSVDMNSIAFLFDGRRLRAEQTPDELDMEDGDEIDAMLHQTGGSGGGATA

Variant	effect of a mutation on the interaction
MVTRETKLTSEREVESSMAQARHNGGGGGENHPFTSLGRQSSIYSLTLDEFQHALCENGKNFGSMNMDEFLVSIWNAEENNNNQQQAAAAAGSHSVPANHNGFNNNNNNGGEGGVGVFSGGSRGNEDANNKRGIANESSLPRQGSLTLPAPLCRKTVDEVWSEIHRGGGSGNGGDSNGRSSSSNGQNNAQNGGETAARQPTFGEMTLEDFLVKAGVVREHPTNPKPNPNPNQNQNPSSVIPAAAQQQLYGVFQGTGDPSFPGQAMGVGDPSGYAKRTGGGGYQQAPPVQAGVCYGGGVGFGAGGQQMGMVGPLSPVSSDGLGHGQVDNIGGQYGVDMGGLRGRKRVVDGPVEKVVERRQRRMIKNRESAARSRARKQAYTVELEAELNQLREENAQLKHALAELERKRKQQYFESLKSRAQPKLPKSNGRLRTLMRNPSCPL [K391R]	disrupting interaction
